Measurements as given in patent US20110311550A1 (Scripps Research, published 2011).

B1: MAb AR3C (antibody, V domains shown)
VH: LEQSGAEVKKPGSSVKVSCETSGGTLDNYALNWVRQAPGQGLEWIGGVVPLFGTTRNAQKFQGRVTISDDKSTGTGHMELRSLRSEDTAVYYCVRSVTPRYCGGGFCYGEFDYWGQGTLVTVSS
VL: ELTQSPATLSVSPGERATLSCRASQSVSSNLAWYQQKPGQAPRLLIYGASTRATGIPARFSGSGSGTEFTLTVSRLEPEDSAVYFCQQYYRSPLTFGGGTKVEIKR
notes: also called IgG1 of Fab H3
B2: MAb AR1A (antibody, V domains shown)
VH: LEQSGAEVKKPGSSVKVSCRASGSPYSSYTITWVRQAPGQGLEWMGGIILMTGKANYAQKFQGRVTITADRATATAYMEMSSLTSDDTAIYYCARDPYVYAGDDVRSLSRWGQGTPVIVSS
VL: not shown
notes: also called IgG1 of Fab B2
B3: MAb AR2A (antibody, V domains shown)
VH: LEQSGAEMKKPGASLKVSCKTSGYTFDDYGVTWVRQAPGQGLEWMGWISAYSGNTFYARKFQGRVTMTTDPSTRTAYMELRSLRSDDTAVYFCARDRGLAINGVVFPYFGLDVWGQGTTVTVSS
VL: ELTQSPVSLPVTPGEPASISCRSSQSLLHSNGNHYLDWYLQKPGQSPQLLMYLGSNRASGVPDRFSGSGSGTDFTLKISRVEAEDVGVYYCMQGLQTPWTFGQGTKVEIKR
notes: also called IgG1 of Fab G
B4: N4 IgG (antibody, V domains shown)
VH: VQLLEQSGPEVKKPGDSLRISCKMSGDSLVTTWIGWVRQKPGQGLEWMGIINPGDSSTNIYPGDSATRYGPSFQGQVTISIDKSTSTAYLQWNNVKASDTGIYYCARHVPVPISGTFLWREREMHDFGYFDDWGQGTLVIVSS
VL: ELTLTQSPGTLSLSPGERATLSCRASQSVSNNYLAWYQQKPGQAPRLLIYGASSRATGIPDRFSGSGSGTGFTLIISRLEPEDFAVYYCQQYGSSSITFGQGTRLEIKR
notes: also called IgG N4
B5: MAb AR3D (antibody, V domains shown)
VH: LEQSGAEVKKPGSSVKVSCKASGDTFRSYVITWARQAPGQGLEWMGAIIPFFGTTNLAQKFQGRVTITADESTKTVYMDLSSLRSDDTAVYYCAKAGDLSVGGVLAGGVPHLRHFDPWGQGTLVTVSS
VL: ELTQSPGTLSLSPGERATLSCRAGQTVASNSLAWYQHKPGQAPRLLIYGASIRASGIPDRFSGSGSGTDFTLTISRLEPEDFAVYYCQQYGLSSTFGQGTRLEIKR
notes: also called IgG1 of Fab L4
B6: MAb AR1B (antibody, V domains shown)
VH: LESGGGLVQPGGSLRLSCEASGYYFSSFAMSWVRQTPGKGLEWVSSIAGGTLGRTSYRDSVKGRFTISRDNSKNTVFLHMNNLRPEDTAVYYCAKDPLLFAGGPNWFDHWGQGTLVTVSS
VL: not shown
notes: also called IgG1 of Fab D1

Experiments:
[1] = biological target: T1, vaccinia-expressed E1E2 complex, isolate HCV-1 (genotype 1a) (hepatitis C virus, isolate HCV-1, UniProt P26664 192-383; P26664 384-746); assay: competition ELISA on HCV-1 E1E2; competitor m2 (AR1B)
[2] = biological target: T1, vaccinia-expressed E1E2 complex, …; assay: competition ELISA on HCV-1 E1E2; competitor m33 (9/75)
[3] = biological target: T2, E1E2 complex of HCV isolate H77 (genotype 1a), wild type (HCV isolate H77, UniProt P27958 192-383; P27958 384-746); assay: competition ELISA on H77 E1E2; competitor m39 (Fab N3)
[4] = biological target: T2, E1E2 complex of HCV isolate H77 …; assay: competition ELISA on H77 E1E2; competitor m40 (Fab N4)
[5] = biological target: T2, E1E2 complex of HCV isolate H77 …; assay: competition ELISA on H77 E1E2; competitor m45 (Fab P3)
[6] = biological target: T1, vaccinia-expressed E1E2 complex, …; assay: competition ELISA on HCV-1 E1E2; competitor m29 (2/69A)
[7] = biological target: T1, vaccinia-expressed E1E2 complex, …; assay: competition ELISA on HCV-1 E1E2; competitor m35 (ALP98)
[8] = biological target: E1E2 complex (H77) with E1 mutation N305A/N325A (HCV genotype 1a, isolate H77, UniProt P27958 192-383; P27958 384-746); assay: ELISA, lectin-captured E1E2 lysate, Ab 1 ug/ml;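 note: E1E2 captured on Galanthus nivalis lectin-coated plates, bound test antibody read out by an HRP-linked secondary antibody and TMB colour development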
[9] = biological target: E1E2 complex (H77) with E1 mutation S198A (HCV genotype 1a, isolate H77, UniProt P27958 192-383; P27958 384-746); assay: ELISA, lectin-captured E1E2 lysate, Ab 1 ug/ml;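 note: E1E2 captured on Galanthus nivalis lectin-coated plates, bound test antibody read out by an HRP-linked secondary antibody and TMB colour development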
[10] = biological target: E1E2 complex (H77) with E1 mutation Y201A (HCV genotype 1a, isolate H77, UniProt P27958 192-383; P27958 384-746); assay: ELISA, lectin-captured E1E2 lysate, Ab 1 ug/ml;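 note: E1E2 captured on Galanthus nivalis lectin-coated plates, bound test antibody read out by an HRP-linked secondary antibody and TMB colour development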
[11] = biological target: E1E2 complex (H77) with E1 mutation T204A (HCV genotype 1a, isolate H77, UniProt P27958 192-383; P27958 384-746); assay: ELISA, lectin-captured E1E2 lysate, Ab 1 ug/ml;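 note: E1E2 captured on Galanthus nivalis lectin-coated plates, bound test antibody read out by an HRP-linked secondary antibody and TMB colour development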
[12] = biological target: E1E2 complex (H77) with E1 mutation H222A (HCV genotype 1a, isolate H77, UniProt P27958 192-383; P27958 384-746); assay: ELISA, lectin-captured E1E2 lysate, Ab 1 ug/ml
[13] = biological target: E1E2 complex (H77) with E1 mutation P224A (HCV genotype 1a, isolate H77, UniProt P27958 192-383; P27958 384-746); assay: ELISA, lectin-captured E1E2 lysate, Ab 1 ug/ml
[14] = biological target: E1E2 complex (H77) with E1 mutation S236A (HCV genotype 1a, isolate H77, UniProt P27958 192-383; P27958 384-746); assay: ELISA, lectin-captured E1E2 lysate, Ab 1 ug/ml
[15] = biological target: E1E2 complex (H77) with E1 mutation T292A (HCV genotype 1a, isolate H77, UniProt P27958 192-383; P27958 384-746); assay: ELISA, lectin-captured E1E2 lysate, Ab 1 ug/ml
[16] = biological target: E1E2 complex (H77) with E1 mutation S307A (HCV genotype 1a, isolate H77, UniProt P27958 192-383; P27958 384-746); assay: ELISA, lectin-captured E1E2 lysate, Ab 1 ug/ml
[17] = biological target: E1E2 complex (H77) with E1 mutation N196A/N234A (HCV genotype 1a, isolate H77, UniProt P27958 192-383; P27958 384-746); assay: ELISA, lectin-captured E1E2 lysate, Ab 1 ug/ml
[18] = biological target: E1E2 complex (H77) with E1 mutation T314A (HCV genotype 1a, isolate H77, UniProt P27958 192-383; P27958 384-746); assay: ELISA, lectin-captured E1E2 lysate, Ab 1 ug/ml
[19] = biological target: E1E2 complex (H77) with E1 mutation H316A (HCV genotype 1a, isolate H77, UniProt P27958 192-383; P27958 384-746); assay: ELISA, lectin-captured E1E2 lysate, Ab 1 ug/ml
[20] = biological target: E1E2 complex (H77) with E1 mutation W320A (HCV genotype 1a, isolate H77, UniProt P27958 192-383; P27958 384-746); assay: ELISA, lectin-captured E1E2 lysate, Ab 1 ug/ml
[21] = biological target: E1E2 complex (H77) with E1 mutation W326A (HCV genotype 1a, isolate H77, UniProt P27958 192-383; P27958 384-746); assay: ELISA, lectin-captured E1E2 lysate, Ab 1 ug/ml
[22] = biological target: E1E2 complex (H77) with E1 mutation R339A (HCV genotype 1a, isolate H77, UniProt P27958 192-383; P27958 384-746); assay: ELISA, lectin-captured E1E2 lysate, Ab 1 ug/ml

Row | Binder | % residual binding [1] | % residual binding [2] | % residual binding [3] | % residual binding [4] | % residual binding [5] | % residual binding [6] | % residual binding [7] | other results
1 | B1 | 91% | 51% | 92% | 112% | 124% | 68% | 99% | –
2 | B2 | 15% | 24% | 71% | 94% | 85% | 86% | 92% | –
3 | B3 | 57% | 82% | 69% | 74% | 72% | 82% | 94% | –
4 | B4 | – | – | – | – | – | – | – | Binding relative to wt (%) [8]: 74%; Binding relative to wt (%) [9]: 78%; Binding relative to wt (%) [10]: 7%; Binding relative to wt (%) [11]: 24%; Binding relative to wt (%) [12]: 44%; Binding relative to wt (%) [13]: 104%; Binding relative to wt (%) [14]: 81%; Binding relative to wt (%) [15]: 104%; Binding relative to wt (%) [16]: 58%; Binding relative to wt (%) [17]: 32%; Binding relative to wt (%) [18]: 83%; Binding relative to wt (%) [19]: 70%; Binding relative to wt (%) [20]: 121%; Binding relative to wt (%) [21]: 125%; Binding relative to wt (%) [22]: 119%
5 | B5 | 92% | 53% | – | 92% | 118% | 56% | 97% | –
6 | B6 | 6% | 38% | 92% | 95% | 93% | 85% | 92% | –
